From US20240383984A1 (Genentech, published 2024)

T1: human FcRH5 protein fragment (soluble) (human, UniProt Q96RD9 16-851)
T1 construct: whole entry named; also called soluble human FcRH5; Human FcRH5 (BIACORE analyte)
T1 sequence: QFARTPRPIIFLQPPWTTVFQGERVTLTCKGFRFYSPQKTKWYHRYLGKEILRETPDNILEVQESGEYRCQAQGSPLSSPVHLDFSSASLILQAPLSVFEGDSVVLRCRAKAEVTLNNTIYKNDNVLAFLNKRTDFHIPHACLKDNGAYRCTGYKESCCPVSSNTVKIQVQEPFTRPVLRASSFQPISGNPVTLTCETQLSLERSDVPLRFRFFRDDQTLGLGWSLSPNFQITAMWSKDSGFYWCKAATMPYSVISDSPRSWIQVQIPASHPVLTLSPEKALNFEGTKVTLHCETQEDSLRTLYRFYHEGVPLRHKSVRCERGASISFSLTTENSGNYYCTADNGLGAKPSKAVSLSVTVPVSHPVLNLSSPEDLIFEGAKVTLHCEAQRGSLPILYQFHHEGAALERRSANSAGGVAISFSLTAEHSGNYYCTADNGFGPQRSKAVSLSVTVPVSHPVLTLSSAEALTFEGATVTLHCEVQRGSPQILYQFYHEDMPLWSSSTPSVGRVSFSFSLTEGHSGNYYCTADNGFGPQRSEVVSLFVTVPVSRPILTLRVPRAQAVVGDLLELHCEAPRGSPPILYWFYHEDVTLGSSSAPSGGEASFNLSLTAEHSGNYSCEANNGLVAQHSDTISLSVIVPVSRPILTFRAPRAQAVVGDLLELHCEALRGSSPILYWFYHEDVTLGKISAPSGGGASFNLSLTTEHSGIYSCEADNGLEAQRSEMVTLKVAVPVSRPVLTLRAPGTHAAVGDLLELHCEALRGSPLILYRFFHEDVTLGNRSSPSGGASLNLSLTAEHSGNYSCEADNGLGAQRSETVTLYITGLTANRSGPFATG


What was measured:
[1] = target: T1, human FcRH5 protein fragment (soluble); test: SPR, hIgG capture, screening
Description: (§1) Briefly, a human IgG capture surface was generated on a Series S CM5 chip using amine coupling and the human IgG capture kit (GE Life Sciences, Piscataway, NJ). Test antibodies were then captured on flow cells 2, 3, or 4, with flow cell 1 used as a reference. An FcRH5 protein fragment was used as the analyte, with a flow rate of […]. Between injections the capture surface was regenerated by a 30-second injection of 3M magnesium chloride or 10 mM glycine, pH 1.5. Interactions were assessed at 25° C. in 10 mM HEPES pH7.4, 150 mM NaCl, and 0.05% Tween 20 (HBSP). Reference data from the reference flow cell and from injection of buffer alone were subtracted prior to kinetic analysis. Kinetic information was calculated by fitting data to a 1:1 binding model. Reference subtraction and data fitting were performed using BIAevaluation software (GE Life Sciences, Piscataway, NJ).
(§2) For affinity screening of HVR-H2 Trp52 and Met64 variants (Table 7), antibodies were expressed by transient transfection of Expi293 cells and purified using tip columns that were custom packed with affinity resin MabSelect SuRe (Glygen Corp., Columbia, MD & GE Life Sciences, Piscataway, NJ). […] Binding of FcRH5 protein fragment to captured antibodies was monitored at 100 nM and 500 nM. Association and dissociation were monitored at a flow rate of 40 μl/min, for 180 s and 300 s, respectively.

[2] = target: T1, human FcRH5 protein fragment (soluble); test: SPR (BIACORE), IgG captured via anti-human IgG, FcRH5 protein fragment as analyte (100 and 500 nM)
Description: as §1, §2

Kd [1]	Kd [2]	Binder
2.6 nM	2.6 nM	hu1G7.v1 heavy chain M64L with light chain of hu1G7.v1.6 (antibody, V domains shown, human IgG) VH: EVQLVESGPGLVKPSETLSLTCTVSGFSLTRFGVHWVRQPPGKGLEWLGVIWRGGSTDYNAAFLSRLTISKDNSKNQVSLKLSSVTAADTAVYYCSNHYYGSSDYALDNWGQGTLVTVSS VL: DIQMTQSPSSLSASVGDRVTITCKASQDVSNIVVWFQQKPGKAPKLLIYSGYYRYSGVPSRFSGSGSGTDFTLTISSLQPEDFATYYCQQQYQPPYTFGQGTKVEIK
48 nM	47.5 nM	hu1G7.v1 heavy chain W52F with light chain of hu1G7.v1.5 (antibody, V domains shown, human IgG) VH: EVQLVESGPGLVKPSETLSLTCTVSGFSLTRFGVHWVRQPPGKGLEWLGVIFRGGSTDYNAAFMSRLTISKDNSKNQVSLKLSSVTAADTAVYYCSNHYYGSSDYALDNWGQGTLVTVSS VL: DIQMTQSPSSLSASVGDRVTITCKASQDVSNIVVWFQQKPGKSPKLLIYSGYYRYTGVPSRFSGSGSGTDFTLTISSLQPEDFATYYCQQQFQPPYTFGQGTKVEIK
67 nM	67.3 nM	hu1G7.v1 heavy chain W52H with light chain of hu1G7.v1.5 (antibody, V domains shown, human IgG) VH: EVQLVESGPGLVKPSETLSLTCTVSGFSLTRFGVHWVRQPPGKGLEWLGVIHRGGSTDYNAAFMSRLTISKDNSKNQVSLKLSSVTAADTAVYYCSNHYYGSSDYALDNWGQGTLVTVSS VL: DIQMTQSPSSLSASVGDRVTITCKASQDVSNIVVWFQQKPGKSPKLLIYSGYYRYTGVPSRFSGSGSGTDFTLTISSLQPEDFATYYCQQQFQPPYTFGQGTKVEIK
250 nM	254 nM	hu1G7.v1 heavy chain W52F with light chain of hu1G7.v1 (antibody, V domains shown, human IgG) VH: EVQLVESGPGLVKPSETLSLTCTVSGFSLTRFGVHWVRQPPGKGLEWLGVIFRGGSTDYNAAFMSRLTISKDNSKNQVSLKLSSVTAADTAVYYCSNHYYGSSDYALDNWGQGTLVTVSS VL: DIQMTQSPSSLSASVGDRVTITCKASQDVSNIVVWFQQKPGKSPKLLIYSASYRYTGVPSRFSGSGSGTDFTLTISSLQPEDFATYYCQQHYSSPYTFGQGTKVEIK
120 nM	120 nM	hu1G7.v1 heavy chain W52H with light chain of hu1G7.v1 (antibody, V domains shown, human IgG) VH: EVQLVESGPGLVKPSETLSLTCTVSGFSLTRFGVHWVRQPPGKGLEWLGVIHRGGSTDYNAAFMSRLTISKDNSKNQVSLKLSSVTAADTAVYYCSNHYYGSSDYALDNWGQGTLVTVSS VL: DIQMTQSPSSLSASVGDRVTITCKASQDVSNIVVWFQQKPGKSPKLLIYSASYRYTGVPSRFSGSGSGTDFTLTISSLQPEDFATYYCQQHYSSPYTFGQGTKVEIK
2.5 nM	2.5 nM	hu1G7.v1 heavy chain M64V with light chain of hu1G7.v1.5 (antibody, V domains shown, human IgG) VH: EVQLVESGPGLVKPSETLSLTCTVSGFSLTRFGVHWVRQPPGKGLEWLGVIWRGGSTDYNAAFVSRLTISKDNSKNQVSLKLSSVTAADTAVYYCSNHYYGSSDYALDNWGQGTLVTVSS VL: DIQMTQSPSSLSASVGDRVTITCKASQDVSNIVVWFQQKPGKSPKLLIYSGYYRYTGVPSRFSGSGSGTDFTLTISSLQPEDFATYYCQQQFQPPYTFGQGTKVEIK
2.7 nM	2.7 nM	hu1G7.v1 heavy chain M64V with light chain of hu1G7.v1.6 (antibody, V domains shown, human IgG) VH: EVQLVESGPGLVKPSETLSLTCTVSGFSLTRFGVHWVRQPPGKGLEWLGVIWRGGSTDYNAAFVSRLTISKDNSKNQVSLKLSSVTAADTAVYYCSNHYYGSSDYALDNWGQGTLVTVSS VL: DIQMTQSPSSLSASVGDRVTITCKASQDVSNIVVWFQQKPGKAPKLLIYSGYYRYSGVPSRFSGSGSGTDFTLTISSLQPEDFATYYCQQQYQPPYTFGQGTKVEIK
77 nM	76.6 nM	hu1G7.v1 heavy chain W52F with light chain of hu1G7.v1.7 (antibody, V domains shown, human IgG) VH: EVQLVESGPGLVKPSETLSLTCTVSGFSLTRFGVHWVRQPPGKGLEWLGVIFRGGSTDYNAAFMSRLTISKDNSKNQVSLKLSSVTAADTAVYYCSNHYYGSSDYALDNWGQGTLVTVSS VL: DIQMTQSPSSLSASVGDRVTITCKASQDVRNLVVWFQQKPGKAPKLLIYSGYYRYTGVPSRFSGSGSGTDFTLTISSLQPEDFATYYCQQHYQPPYTFGQGTKVEIK
2.5 nM	2.5 nM	hu1G7.v1 heavy chain M64V with light chain of hu1G7.v1.7 (antibody, V domains shown, human IgG) VH: EVQLVESGPGLVKPSETLSLTCTVSGFSLTRFGVHWVRQPPGKGLEWLGVIWRGGSTDYNAAFVSRLTISKDNSKNQVSLKLSSVTAADTAVYYCSNHYYGSSDYALDNWGQGTLVTVSS VL: DIQMTQSPSSLSASVGDRVTITCKASQDVRNLVVWFQQKPGKAPKLLIYSGYYRYTGVPSRFSGSGSGTDFTLTISSLQPEDFATYYCQQHYQPPYTFGQGTKVEIK
60 nM	60.4 nM	hu1G7.v1 heavy chain W52H with light chain of hu1G7.v1.4 (antibody, V domains shown, human IgG) VH: EVQLVESGPGLVKPSETLSLTCTVSGFSLTRFGVHWVRQPPGKGLEWLGVIHRGGSTDYNAAFMSRLTISKDNSKNQVSLKLSSVTAADTAVYYCSNHYYGSSDYALDNWGQGTLVTVSS VL: DIQMTQSPSSLSASVGDRVTITCKASQDVRNLVVWFQQKPGKAPKLLIYSGSYRYSGVPSRFSGSGSGTDFTLTISSLQPEDFATYYCQQHYSPPYTFGQGTKVEIK
180 nM	177 nM	hu1G7.v1 heavy chain W52F with light chain of hu1G7.v1.3 (antibody, V domains shown, human IgG) VH: EVQLVESGPGLVKPSETLSLTCTVSGFSLTRFGVHWVRQPPGKGLEWLGVIFRGGSTDYNAAFMSRLTISKDNSKNQVSLKLSSVTAADTAVYYCSNHYYGSSDYALDNWGQGTLVTVSS VL: DIQMTQSPSSLSASVGDRVTITCKASQDVRNIVVWFQQKPGKAPKLLIYSGSYRYSGVPSRFSGSGSGTDFTLTISSLQPEDFATYYCQQQYSPPYTFGQGTKVEIK
120 nM	119 nM	hu1G7.v1 heavy chain W52F with light chain of hu1G7.v1.4 (antibody, V domains shown, human IgG) VH: EVQLVESGPGLVKPSETLSLTCTVSGFSLTRFGVHWVRQPPGKGLEWLGVIFRGGSTDYNAAFMSRLTISKDNSKNQVSLKLSSVTAADTAVYYCSNHYYGSSDYALDNWGQGTLVTVSS VL: DIQMTQSPSSLSASVGDRVTITCKASQDVRNLVVWFQQKPGKAPKLLIYSGSYRYSGVPSRFSGSGSGTDFTLTISSLQPEDFATYYCQQHYSPPYTFGQGTKVEIK
66 nM	65.5 nM	hu1G7.v1 heavy chain W52H with light chain of hu1G7.v1.3 (antibody, V domains shown, human IgG) VH: EVQLVESGPGLVKPSETLSLTCTVSGFSLTRFGVHWVRQPPGKGLEWLGVIHRGGSTDYNAAFMSRLTISKDNSKNQVSLKLSSVTAADTAVYYCSNHYYGSSDYALDNWGQGTLVTVSS VL: DIQMTQSPSSLSASVGDRVTITCKASQDVRNIVVWFQQKPGKAPKLLIYSGSYRYSGVPSRFSGSGSGTDFTLTISSLQPEDFATYYCQQQYSPPYTFGQGTKVEIK
81 nM	81.4 nM	hu1G7.v1 heavy chain W52F with light chain of hu1G7.v1.6 (antibody, V domains shown, human IgG) VH: EVQLVESGPGLVKPSETLSLTCTVSGFSLTRFGVHWVRQPPGKGLEWLGVIFRGGSTDYNAAFMSRLTISKDNSKNQVSLKLSSVTAADTAVYYCSNHYYGSSDYALDNWGQGTLVTVSS VL: DIQMTQSPSSLSASVGDRVTITCKASQDVSNIVVWFQQKPGKAPKLLIYSGYYRYSGVPSRFSGSGSGTDFTLTISSLQPEDFATYYCQQQYQPPYTFGQGTKVEIK
2.5 nM	2.5 nM	hu1G7.v1 heavy chain M64V with light chain of hu1G7.v1.3 (antibody, V domains shown, human IgG) VH: EVQLVESGPGLVKPSETLSLTCTVSGFSLTRFGVHWVRQPPGKGLEWLGVIWRGGSTDYNAAFVSRLTISKDNSKNQVSLKLSSVTAADTAVYYCSNHYYGSSDYALDNWGQGTLVTVSS VL: DIQMTQSPSSLSASVGDRVTITCKASQDVRNIVVWFQQKPGKAPKLLIYSGSYRYSGVPSRFSGSGSGTDFTLTISSLQPEDFATYYCQQQYSPPYTFGQGTKVEIK
110 nM	109 nM	hu1G7.v1 heavy chain W52H with light chain of hu1G7.v1.6 (antibody, V domains shown, human IgG) VH: EVQLVESGPGLVKPSETLSLTCTVSGFSLTRFGVHWVRQPPGKGLEWLGVIHRGGSTDYNAAFMSRLTISKDNSKNQVSLKLSSVTAADTAVYYCSNHYYGSSDYALDNWGQGTLVTVSS VL: DIQMTQSPSSLSASVGDRVTITCKASQDVSNIVVWFQQKPGKAPKLLIYSGYYRYSGVPSRFSGSGSGTDFTLTISSLQPEDFATYYCQQQYQPPYTFGQGTKVEIK
